Experimental data from the RNAGym collection of RNA variant scans (doi:10.1073/pnas.2313332121).

B1: TPR t1 (parent)
chain: GACCAAUCUGCCCUCAGAGCUCGAGAACAUCUUCGGAUGCAGAGGAGGCAGGCUUCGGUGGCGCGAUAGCGCCAACGUCCUCAACCUCCAAUGCAUCCCACCACAUGAUGAUGCCUGAAGAGCCUUGGUUUUUUG

Variants of: B1
Assay: polymerase ribozyme fitness, log enrichment relative to wild type (log ratio); higher = more active; in vitro selection for triplet polymerase activity
Procedure, shortened: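 In triplicate, a single round of in vitro selection was run on each mutant library, PCR-built and transcribed, covering one subunit of a heterodimeric triplet polymerase ribozyme. Frozen incubation at −7 °C followed annealing with a biotinylated primer, partner subunit and triplets, and extended constructs were then gel-excised, streptavidin-captured and taken through RT-PCR. Fitness is the logarithm of genotype enrichment over wild-type enrichment, from inverse-variance-weighted replicate averages of Illumina-sequenced inputs and outputs. […] only genotypes with ≥10 input reads and ≥1 read per output were kept.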

Variant | polymerase ribozyme fitness (log ratio)
C15A A111G | -2.08
C15G A16C G51U G61U G71C C79A U112G | -6.41
C13U G63A U78C | -0.503
U14C A75G | -1.81
U14G A50U C56U G93U U112A | -3.22
C15U A18G A37G U54A A100U C115A | -5.29
C15G G117C | -3.41
C15G U92G C97U A118U | -4.66
U14A G120A | -0.235
C15G U106G G117C | 0.15
C13U G110U | -1.02
C13U A46U | -0.902
C15A A37U | -2.28
U14G C80U C102U C123G | -1.69
C15A C20U U109A | -5.4
C15G G52U U87G | -3.21
C13U C20A U38G | -4.15
U14G C73U A90G | 1.59
C15A C73G G117A G127U | -4.62
C13U C56U U92C C114A | -1.92
C15A A18U C22G U92G | -6.59
C15U A16U C76A C115A C123A U130C | -5.56
C13U U21C C64U | -0.0953
C13U G17U | -2.37

Variant | polymerase ribozyme fitness (log ratio)
C13U U78A | 0.102
U14A C31U U87C U112G | -6.24
U14A C72U G93U U133A G135U | -4.17
C15A C88U C123U | -1.37
C15G G57A | -4.5
U14G G48A C64U U116A C123G U131C | -1.29
C13U G69U G93A U126C | -0.75
C15G U32C A43G G45U C89G | -4.49
C13U C72U U92C A105G | -5.23
C15A A68G C97A A103G | -6.8
C15G C28A G44U G52U G69U | -5.21
C13U G117A | -1.27
C13U A50U G52C C53A U87A | -3.76
C13U U112C | 1.07
C15G A37C A46U C53A C56G | -4.78
C13U C123U U132A | 1.91
C15G C70U C82G C88A | -4.4
C13U U14A A27U G47C | -6.21
C15G C115A | -2.88
C15G A16U G69C | -4.45
C15A G48U A50G C97U | -4.67
C15G C85U | -3.82
C13U U14A G71A C82G | -2.67
U14A G63C C82U U132A | -3.33

Variant | polymerase ribozyme fitness (log ratio)
U14A C70G U125A | -4.4
C13U G48A C56A G71A A90G | -4.36
C15A U33A G42C U78C C79U A111G | -6.15
C13U C70A A84U | -1.83
U14C A26C C70U U78A A83U U109G U112A | -6.59
U14A G52A | -3.3
C15G A18U | -3.36
C15G A118U U131A | -1.47
U14G C34A G117A | -4.56
C15G A29G C88G | -3.43
U14G G42U G45C C64U C101U C123A G135U | -4.44
C13U C40A G61A | -0.491
C13U G63U | -0.742
C13U G63C | -0.36
C13U C73G A83G | -1.22
C15A A74G U81G U112C | -3.53
U14C G57A C97U | -3.84
U14G A37G G42A G77A | -4.88
U14G C15A | -3.45
C13U G19C G48U | -3.4
C13U U32C G93C A95G | -1.09
C15A C70A | -2.47
C15A C70U | -2.96
C13U G19U G52U C64U | -3.78

Variant | polymerase ribozyme fitness (log ratio)
U14G G110A U130A | -3.04
C13U C102A | -2.14
C13U G44U C56A | -1.59
C13U G113U | -2.4
C15A G47U G61U | -3.15
C15A C28G G36A C40U G110C U112C C115A G117U G120A | -3.11
U14C A18G G63A U78C G117U | -5.13
C15G C98U | -4.22
C13U U55G A91G | -0.322
U14A C56A C62U | -2.93
U14G C22U A29G G61A C124G U129C | -4.06
C13U C28G G63U C98U C115U | -5.89
C15G G110A | -3.78
C13U G45U C56G U87A | -3.44
U14C A46U C62U U125A | -3.37
U14A G63A U125A | -2.94
U14A G60U U78C | -3.65
C15G A46G C56G | -4.02
C15A C72U G93U C114G | -5.25
C15A C72G C104U | -1.9
C15G C53G C72A U81A G120C C123G | -2.32
U14G G51A G113A G120A A121G | -2.87
C13U C40A C82A C89A | -2.38
U14A A74C C76A A121C | -1.88

Variant | polymerase ribozyme fitness (log ratio)
U14C C80U | -2.7
C13U A84U G113U U116A A119G G135U | -6.59
U14A C70G G77C U112C A119G U131G | -3.76
U14G C70G U116G U125A | -5.32
U14G C40G C86U A90G U106A | -3.96
C13U C15U A37U A41U U59G | -1.74
U14A C56G | -3.51
U14G A41C A74U A84C | -3.77
C13U G47C C72G G110A | -3.24
C13U A37G G47A G57C G71C | -1.61
U14C G60C C64A U109G | -6.09
U14A A18C G113A C123U | -4.67
C15U A43U G45C C94G | -4.68
U14C C31G U33G G65U A95U G117U | -7.34
C15A G36A C72U U116A G120U | -4.34
U14A A18U C31G U38G G107A C124A | -6.73
C15U A27U | -4.81
C13U G63U A90U G117C | -5.21
U14A U21G G120U C124U | -0.621
C13U C64U | 0.138
C13U G39A G58U C79G C97U | -2.64
U14A C49U G52U C76A | -4.51
C13U C72G A74U G93A C114G | -4.31
C13U G42U | -1.12

Variant | polymerase ribozyme fitness (log ratio)
C13U C40A G120A U131G | -0.101
C15G C94A | -3.63
C13U C34A C70A U106A C114A | -6.64
C13U U59A U81C | -0.938
U14G U54A G61C | -2.7
U14A G57A G61A A90G C124A | 1.08
C13U U92C C104U | -1.33
C13U C20G G63C | -4.8
C13U U30C C56U A121C U130G | -1.57
C15G G44C G57U | -3.85
C13U G19U G52U | -2.98
U14A C115U | -3.52
C15G G63A U116G | -3.64
U14C A43G | -3.2
C13U G93C | -0.682
C15G U112A | -1.44
U14A C85A C89G C123U | -3.2
U14C C72A | -0.983
C13U G42U C70U A121C | 0.0681
C13U C53G C56A G65A | -7.29
U14A A74G G117U | -4.7
C15A G63C C88U | -3.01
C15A G69C | -3.57
C15A G52A G117U | 0.0979

Variant | polymerase ribozyme fitness (log ratio)
C13U C82G | 0.0764
C13U C49U | -0.549
C15G A18U C70U U116A G120U | -1.19
C15A G57U C64G | -6.59
C13U C62U G63C U112A | -0.823
U14C C40G C49G | -3.41
C13U A50U A66G C88U A90U U109A U116C | -5.37
C15A G61U A105C | -4.93
C15G A50U U109A | -6.25
C13U U33G G69U C104G G120A U125C | -6.78
U14G C20U C22G G23C U33C U38G C62U U112C A118G G127A | -6.3
C15A G61U C89U G122U C124G G135A | -0.759
U14A G36A C56U | -3.35
C13U A66U C70U C72G C88U G120A U126C | -4.41
U14A A43G G58A C86U | -4.43
C13U C56U G60C C73A | -0.677
C15G C72U | -3.01
C15G G61C A119G | -0.591
C15G G44C G47A G69U G135U | -3.36
C15A U78A | -2.6
C13U C62G U130C G135U | -1.67
C15G C97U | -2.23
U14A C49U G52U A121U U125A | -1.22
